In experiment [1] the target is T1, soluble human IL-6R (human, UniProt P08887 20-357).
T1 construct: also called hsIL-6R; recombinant human IL6R
T1 sequence: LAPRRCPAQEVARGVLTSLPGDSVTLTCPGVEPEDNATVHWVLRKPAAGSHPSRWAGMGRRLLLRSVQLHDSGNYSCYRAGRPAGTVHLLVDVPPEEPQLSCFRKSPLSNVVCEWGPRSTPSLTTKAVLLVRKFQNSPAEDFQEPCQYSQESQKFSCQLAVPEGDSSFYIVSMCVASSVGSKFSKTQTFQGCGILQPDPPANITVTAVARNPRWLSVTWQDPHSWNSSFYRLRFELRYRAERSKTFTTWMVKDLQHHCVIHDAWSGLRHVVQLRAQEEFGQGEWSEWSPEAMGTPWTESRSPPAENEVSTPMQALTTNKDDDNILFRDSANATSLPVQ
The experiment in a line: BLI (Octet HTX), molecule on Protein A sensor, hsIL-6R as analyte, 30 C. (Biolayer interferometry detects binding as a change in optical thickness at a sensor tip.)
Method: The hsIL-6R binding evaluation of each molecule was conducted using Octet HTX (Pall ForteBio Corp.).

Experiment [2] has as its target T2, Human aggrecan G1-IGD-G2 domain with Flag-tag on its C-terminus (human, UniProt P16112 17-675).
T2 construct: used unlabelled as Biacore analyte; also called human aggrecan G1-IGD-G2-Flag; human Aggrecan G1G2 flag
Briefly: SPR (Biacore), 37 C, as in Example 20. On the technique in general: Surface plasmon resonance follows binding to a sensor surface in real time, without labels.
Method: (§1) The binding affinity of the antibodies at pH 7.4 was determined at 37 degrees C. using Biacore T200 instrument (GE Healthcare). Recombinant Protein A/G (Pierce) was immobilized onto all flow cells of a CM4 sensor chip using amine coupling kit (GE Healthcare). Antibodies and analytes were prepared in buffer (20 mM Sodium Phosphate, 150 mM NaCl, 0.05% Tween 20, 0.005% NaN₃, pH 7.4). Each antibody was captured onto the sensor surface by protein A/G. Antibody capture levels were aimed at 200 resonance unit (RU). […] Sensor surface was regenerated each cycle with 10 mM Glycine-HCl pH 1.5.

Experiment [3] concerns the target T3, biotin-rabbit aggrecan G1-IGD-G2-3xFlag (rabbit, UniProt Q28670 17-683, biotin on the N-terminal Avi-tag (BirA co-expression)).
T3 construct: three tandem Flag-tags at the C-terminus and Avi-tag at the N-terminus; also called biotinylated Avi-rabbit aggrecan G1-IGD-G2-3xFLAG; Avi RbG1G2 3FLAG
The experiment in a line: SPR (Biacore), 37 C, as in Example 20.
Method: as §1

In experiment [4] the target is T3, biotin-rabbit aggrecan G1-IGD-G2-3xFlag. Briefly: SPR (Biacore T200), 37 C, pH 7.4, antibody captured, Avi RbG1G2 3Flag as analyte, 1:1 model; second row with this name.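 Also: antibodies captured at roughly 200 RU on a CM4 or C1 chip through anti-human IgG Fc or Protein A/G, in sodium phosphate NaCl buffer with Tween 20.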
Method: (§2) Anti-Human IgG (Fc) antibody was immobilized onto all flow cells of a CM4 sensor chip using Human antibody capture kit (GE Healthcare). Protein A/G was immobilized onto all flow cells of a CM4 or C1 sensor chip using amine coupling kit (GE Healthcare). Antibodies and analytes were prepared in buffer (50 mM Sodium Phosphate, 150 mM NaCl, 0.02% Tween 20, 0.005% NaN3, pH 7.4 or 20 mM Sodium Phosphate, 150 mM NaCl, 0.05% Tween20, 0.005% NaN₃, pH 7.4). Each antibody was captured onto the sensor surface by Anti-Human IgG (Fc) antibody or Protein A/G. Antibody capture levels were aimed at 200 resonance unit (RU). […] Sensor surface was regenerated each cycle with 3 M MgCl₂ or 10 mM Glycine-HCl, pH 1.5.
Experiment [5] shares this target. Briefly: SPR (Biacore T200), 37 C, pH 7.4, antibody captured, Avi RbG1G2 3Flag as analyte, 1:1 model.
Method: as §2
In experiment [6] the target is T2, Human aggrecan G1-IGD-G2 domain with …. Briefly: SPR (Biacore T200), 37 C, pH 7.4, antibody captured by protein A/G, 1:1 model.
Method: as §1
The target of experiment [7] is T3, biotin-rabbit aggrecan G1-IGD-G2-3xFlag. The description is as above.
Method: as §1
For experiment [8], the target named is T1, soluble human IL-6R. Briefly: BLI (Octet), in the same way as in Example 3, 30 C or 25 C.
The target of experiment [9] is T2, Human aggrecan G1-IGD-G2 domain with …. Briefly: SPR (Biacore T200), 37 C, pH 7.4, antibody captured by protein A/G, 1:1 model; footnote: fitting was not good due to bi-phasic interaction.
Method: as §1
Experiment [10] has as its target T3, biotin-rabbit aggrecan G1-IGD-G2-3xFlag. The experiment is described as above.
Method: as §1

In general, Kd refers to the concentration at which binding is half-saturated. A higher Kd goes with a looser complex. For orientation: koff means the rate constant with which the complex falls apart. High values mean a short-lived complex, low ones a long-lived complex. What is called kon is the second-order rate constant of association. Read a low kon as slower complex formation.

B1: IL6R90-G1m/VK2-28-k0MT (antibody, human IgG1, kappa, V domains shown)
VH: EVQLVESGGGLVQPGGSLRLSCAASGFTFDDYGMSWVRQAPGKALEWVSAISWNGNNTYYTESMKGRFTISRDNAKNTLYLQMNSLRPEDTAVYYCVKGSTAIVGVPPTYPDEYDYWGQGTLVTVSS
VL: not shown
notes: IgG antibody-like molecule with VHH IL6R90 in place of VH
In the case of B1, the binding result in the experiment with soluble human IL-6R [1] is given as “no binding”.

B2: IL6R90-G1m/VL1-40-lamL (antibody, human IgG1, lambda, V domains shown)
VH: B1 VH
VL: QSVLTQPPSVSGAPGQRVTISCTGSSSNIGAGYDVHWYQQLPGTAPKLLIYGNSNRPSGVPDRFSGSKSGTSASLAITGLQAEDEADYYCQSYDNSLNAVVFGGGTKLTVLG
notes: as for B1
Consider B2, for which, in the experiment with soluble human IL-6R [1], the binding result is “no binding”.

B3: IL6R90-G1m/VL1-44-lamL (antibody, human IgG1, lambda, V domains shown)
VH: B1 VH
VL: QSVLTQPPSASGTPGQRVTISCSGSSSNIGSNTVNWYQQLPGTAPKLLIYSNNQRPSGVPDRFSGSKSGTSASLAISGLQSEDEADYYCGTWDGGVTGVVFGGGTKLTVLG
notes: as for B1
Consider B3, for which the binding result with soluble human IL-6R [1] is “no binding”.

B4: GRA0124ccAE02-rbIgG (antibody)
heavy: QSVEESGGRLVTPGTPLTLTCTVSGVDLSNYAIHWVRQAPGKGLEWIGMIRSNGMRYYGTWAKGRFTTSKTSSTTVDLKMTSPTTEDTATYFCARLWNIWGPGTLVTVSSGQPKAPSVFPLAPCCGDTPSSTVTLGCLVKGYLPEPVTVTWNSGTLTNGVRTFPSVRQSSGLYSLSSVVSVTSSSQPVTCNVAHPATNTKVDKTVAPSTCSKPMCPPPELLGGPSVFIFPPKPKDTLMISRTPEVTCVVVDVSQDDPEVQFTWYINNEQVRTARPPLREQQFNSTIRVVSTLPIAHQDWLRGKEFKCKVHNKALPAPIEKTISKARGQPLEPKVYTMGPPREELSSRSVSLTCMINGFYPSDISVEWEKNGKAEDNYKTTPTVLDSDGSYFLYSKLSVPTSEWQRGDVFTCSVMHEALHNHYTQKSISRSPGK
light: QVLTQTPSSTSVAVGGTVTINCQSSPSVYLNLLAWYQQKPGQPPKLLIYSASFLQSGVPPRFSGSGSGTQFTLTISGVQCADAATYYCAGVYSNNIYTFGGGTKVEIKRDPVAPTVLIFPPAADQVATGTVTIVCVANKYFPDVTVTWEVDGTTQTTGIENSKTPQNSADCTYNLSSTLTLTSTQYNSHKEYTCKVTQGTTSVVQSFNRGDC
notes: also called GRA0124ccAE02-rIgG
In experiment [2], B4 yielded a Kd of 553 nM, an off-rate constant (koff) of 0.0108 s⁻¹ and a kon of 19500 M⁻¹ s⁻¹. In [3], this molecule came in with a dissociation constant Kd of 16.4 nM, an off-rate constant (koff) of 0.000333 s⁻¹ and a kon of 20400 M⁻¹ s⁻¹.

B5: GRA0124Hc0626-SG1/GRA0124Lc0544-SK2 (antibody, human IgG1, kappa)
heavy: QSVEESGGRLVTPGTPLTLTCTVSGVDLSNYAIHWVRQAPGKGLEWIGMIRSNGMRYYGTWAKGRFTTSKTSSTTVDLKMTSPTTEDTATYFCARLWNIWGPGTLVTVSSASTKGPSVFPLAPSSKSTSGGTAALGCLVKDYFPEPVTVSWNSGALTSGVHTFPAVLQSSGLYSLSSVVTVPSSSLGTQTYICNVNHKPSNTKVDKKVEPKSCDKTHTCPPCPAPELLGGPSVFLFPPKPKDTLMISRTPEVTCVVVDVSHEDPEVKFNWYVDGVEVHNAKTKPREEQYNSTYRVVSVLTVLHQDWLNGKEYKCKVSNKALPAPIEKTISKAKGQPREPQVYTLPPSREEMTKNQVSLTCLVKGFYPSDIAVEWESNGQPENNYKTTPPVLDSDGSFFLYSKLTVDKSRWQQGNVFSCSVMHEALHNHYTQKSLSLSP
light: AQVLTQTPSSTSVAVGGTVTINCQSSPSVYLNLLAWYQQKPGQPPKLLIYSASFLQSGVPPRFSGSGSGTQFTLTISGVQCADAATYYCAGVYSNNIYTFGGGTKVEIKRTVAAPSVFIFPPSDEQLKSGTASVVCLLNNFYPREAKVQWKVDNALQSGNSQESVTEQDSKDCTYSLSSTLTLSKADYEKHKVYACEVTHQGLSSPVTKSFNRGEC
notes: also called GRA0124ccAE02-SG1; GRA124ccAE02-SG1
As to B5, in [4], the dissociation constant (Kd) was determined as 4.07 nM, the dissociation rate constant (koff) was 0.000341 s⁻¹ and the kon worked out at 83800 M⁻¹ s⁻¹. In [5], this molecule gave a Kd of 15.6 nM, a koff of 0.000838 s⁻¹ and a kon of 53900 M⁻¹ s⁻¹.

B6: GRA1013hq-rIgG (antibody)
heavy: EVKLMESGGGLVKPGGSLKLSCAASGFTFSSYAMSWVRQTPEKRLEWVTSISSGGTTYYPDSVKGRFTISRDNARNILFLQMSSLRSEDTAMYYCARGPHWYLDVWGAGTSVTVSSSTKGGQPKAPSVFPLAPCCGDTPSSTVTLGCLVKGYLPEPVTVTWNSGTLTNGVRTFPSVRQSSGLYSLSSVVSVTSSSQPVTCNVAHPATNTKVDKTVAPSTCSKPMCPPPELLGGPSVFIFPPKPKDTLMISRTPEVTCVVVDVSQDDPEVQFTWYINNEQVRTARPPLREQQFNSTIRVVSTLPIAHQDWLRGKEFKCKVHNKALPAPIEKTISKARGQPLEPKVYTMGPPREELSSRSVSLTCMINGFYPSDISVEWEKNGKAEDNYKTTPTVLDSDGSYFLYSKLSVPTSEWQRGDVFTCSVMHEALHNHYTQKSISRSPGK
light: DILMTQTPLSLPVSLGDQASISCRSSQSIVHSNGNTYLEWYLQKPGQSPKLLIYKVSNRFSGVPDRFSGSGSGTDFTLKISRVEAEDLGVYYCFQGSHLPLTFGAGTKLELKRTVAARDPVAPTVLIFPPAADQVATGTVTIVCVANKYFPDVTVTWEVDGTTQTTGIENSKTPQNSADSTYNLSSTLTLTSTQYNSHKEYTCKVTQGTTSVVQSFNRGDC
notes: anti-aggrecan antibody from mouse B cells, rabbit constant regions rbIgG / rbIgK2
As to B6, in experiment [6], the Kd was 1540 nM, the off-rate constant (koff) is 0.0406 s⁻¹ and the association rate constant (kon) came out at 26300 M⁻¹ s⁻¹. In experiment [7], this molecule displayed a Kd of 459 nM, a koff of 0.00973 s⁻¹ and an on-rate constant (kon) of 21200 M⁻¹ s⁻¹.

B7: 20A11hu-G1m/VL2-14-lamL (antibody, human IgG1, lambda, V domains shown)
VH: EVQLVESGGGLVQPGGSLRLSCAASGSVFKINVMAWVRQAPGKGLEWVAGIISGGSTSYADSVKGRFTISRDNAKNTLYLQMNSLRPEDTAVYYCAFITTESDYDLGRRYWGQGTLVTVSS
VL: QSALTQPASVSGSPGQSITISCTGTSSDVGGYNYVSWYQQHPGKAPKLMIYEVSNRPSGVSNRFSGSKSGNTASLTISGLQAEDEADYYCSSYRSGYTLVVFGGGTKLTVLG
notes: IgG antibody-like molecule with VHH 20A11hu in place of VH
With B7, in the experiment with soluble human IL-6R [8], the binding result is reported as “no binding”.

B8: IL6R90-G1m/VL2-14-lamL (antibody, human IgG1, lambda, V domains shown)
VH: B1 VH
VL: B7 VL
notes: as for B1
Regarding B8, in the experiment with soluble human IL-6R [1], the binding result is given as “no binding”.

B9: GRA0105gg-rbIgG (antibody)
heavy: QSLEESGGGLVTPGTPLTLTCTVSGLSLSNSVMSWVRQAPGKGLEWIGFISIHDETNYATWAKGRFTISKTSSTTVDLKMTSPTTDDTATYFCARDGDSHGFYFGLWGPGTLVTVSSGQPKAPSVFPLAPCCGDTPSSTVTLGCLVKGYLPEPVTVTWNSGTLTNGVRTFPSVRQSSGLYSLSSVVSVTSSSQPVTCNVAHPATNTKVDKTVAPSTCSKPMCPPPELLGGPSVFIFPPKPKDTLMISRTPEVTCVVVDVSQDDPEVQFTWYINNEQVRTARPPLREQQFNSTIRVVSTLPIAHQDWLRGKEFKCKVHNKALPAPIEKTISKARGQPLEPKVYTMGPPREELSSRSVSLTCMINGFYPSDISVEWEKNGKAEDNYKTTPTVLDSDGSYFLYSKLSVPTSEWQRGDVFTCSVMHEALHNHYTQKSISRSPGK
light: QVLTQTPSPVSAAVGGTVTINCQASQSVYNKNNLAWYQQKPGQPPKLLIYDASKLASGVPSRFKGGGSGTHFTLTISGVQCDDAATYYCQGTYYSSGWYNTFGGGTKVEIKRDPVAPTVLIFPPAADQVATGTVTIVCVANKYFPDVTVTWEVDGTTQTTGIENSKTPQNSADCTYNLSSTLTLTSTQYNSHKEYTCKVTQGTTSVVQSFNRGDC
notes: anti-aggrecan antibody, rabbit constant regions rbIgG / rbIgK
In experiment [9], B9 showed a dissociation constant Kd of 3.16 nM, a koff of 0.000287 s⁻¹ and a kon of 91100 M⁻¹ s⁻¹. In [10], this molecule came in with a Kd of 4.42 nM, a dissociation rate constant (koff) of 0.000255 s⁻¹ and a kon of 57700 M⁻¹ s⁻¹.

The values are drawn from patent publication US20210221875A1 (Chugai, published 2021).
